Columns and labels:
HLA-B*15:42 = test: IEDB peptide-MHC binding, purified MHC/competitive/fluorescence; filed as Kd, often an IC50 or EC50 that approximates it; ≥ and ≤ were set here for values at or beyond the usual limits of such assays
HLA-B*45:06 = test: as above
HLA-B*83:01 = test: as above
HLA-B*15:01 [1] = test: as above
HLA-A*11:01 = test: IEDB peptide-MHC binding, purified MHC/direct/fluorescence; filed as Kd, often an IC50 or EC50 that approximates it; ≥ and ≤ were set here for values at or beyond the usual limits of such assays; details: source organism: Mycobacterium tuberculosis
HLA-A*02:01 = test: as above
HLA-B*08:01 = test: as above
HLA-B*58:01 = test: as above; details: source organism: Mycobacterium tuberculosis
HLA-B*40:01 = test: as above; details: source organism: Mycobacterium tuberculosis
HLA-B*46:01 = test: as above; details: source organism: Mycobacterium tuberculosis
HLA-B*15:17 = test: as above; details: source organism: Mycobacterium tuberculosis
HLA-B*51:01 = test: as above; details: source organism: Mycobacterium tuberculosis
HLA-B*08:02 = test: as above
HLA-B*18:01 = test: as above; details: source organism: Mycobacterium tuberculosis
HLA-A*03:01 = test: as above; details: source organism: Mycobacterium tuberculosis
HLA-A*31:01 = test: as above; details: source organism: Mycobacterium tuberculosis
HLA-B*38:01 = test: as above
HLA-B*57:01 = test: as above; details: source organism: Mycobacterium tuberculosis
HLA-B*27:05 = test: as above; details: source organism: Mycobacterium tuberculosis
HLA-A*69:01 = test: as above; details: source organism: Mycobacterium tuberculosis
HLA-B*48:01 = test: as above; details: source organism: Mycobacterium tuberculosis
HLA-A*01:01 = test: as above; details: source organism: Mycobacterium tuberculosis
HLA-A*26:01 = test: as above
HLA-B*15:01 [2] = test: as above; details: source organism: Mycobacterium tuberculosis
HLA-A*32:15 = test: IEDB peptide-MHC binding, purified MHC/competitive/fluorescence; filed as Kd, often an IC50 or EC50 that approximates it; ≥ and ≤ were set here for values at or beyond the usual limits of such assays
HLA-B*27:20 = test: as above; details: source organism: Mammarenavirus juninense
HLA-A*32:07 = test: as above; details: source organism: Mammarenavirus juninense
HLA-C*03:03 = test: IEDB peptide-MHC binding, purified MHC/direct/fluorescence; filed as Kd, often an IC50 or EC50 that approximates it; ≥ and ≤ were set here for values at or beyond the usual limits of such assays; details: source organism: Mammarenavirus juninense
HLA-B*39:01 = test: IEDB peptide-MHC binding, purified MHC/competitive/fluorescence; filed as Kd, often an IC50 or EC50 that approximates it; ≥ and ≤ were set here for values at or beyond the usual limits of such assays; details: source organism: Mycobacterium tuberculosis C
HLA-B*15:09 = test: as above; details: source organism: Mycobacterium tuberculosis C
HLA-A*30:01 = test: IEDB peptide-MHC binding, purified MHC/direct/fluorescence; filed as Kd, often an IC50 or EC50 that approximates it; ≥ and ≤ were set here for values at or beyond the usual limits of such assays; details: source organism: Mycobacterium tuberculosis str. Haarlem
HLA-C*14:02 = test: as above; details: source organism: Campylobacter jejuni
HLA-C*15:02 = test: as above; details: source organism: Campylobacter jejuni
HLA-C*06:02 = test: as above; details: source organism: Campylobacter jejuni
[3] = source organism: Mycobacterium tuberculosis variant bovis BCG str. Pasteur 1173P2
[4] = source organism: Mycobacterium tuberculosis
[5] = source organism: Mycobacterium tuberculosis str. Haarlem
[6] = source organism: Mycobacterium tuberculosis F11
[7] = source organism: Mammarenavirus juninense
[8] = source organism: Campylobacter jejuni

Row | Sequence | Kd (HLA-A*11:01) [µM] | Kd (HLA-A*02:01; [4]) [µM] | Kd (HLA-B*08:01; [5]) [µM] | Kd (HLA-B*58:01) [µM] | Kd (HLA-B*40:01) [µM] | Kd (HLA-B*46:01) [µM] | Kd (HLA-B*15:17) [µM] | Kd (HLA-B*51:01) [µM] | Kd (HLA-B*08:02; [5]) [µM] | Kd (HLA-B*18:01) [µM] | Kd (HLA-A*03:01) [µM] | Kd (HLA-A*31:01) [µM] | Kd (HLA-B*38:01; [5]) [µM] | Kd (HLA-B*57:01) [µM] | Kd (HLA-B*27:05) [µM] | Kd (HLA-A*69:01) [µM] | Kd (HLA-B*48:01) [µM] | Kd (HLA-A*01:01) [µM] | further results
1 | RPRVAQLTF | ≥ 20 | ≥ 20 | 0.267 | ≥ 20 | ≥ 20 | ≥ 20 | 0.169 | ≥ 20 | 3.86 | 0.104 | ≥ 20 | ≥ 20 | ≥ 20 | 0.864 | ≥ 20 | ≥ 20 | ≥ 20 | 4.16 | Kd (HLA-B*15:42; [3]): ≥ 5 µM; Kd (HLA-B*45:06; [3]): ≥ 5 µM; Kd (HLA-B*83:01; [3]): 2.01 µM; Kd (HLA-B*15:01 [1]; [3]): ≥ 20 µM
2 | KPKLARGEL | ≥ 20 | ≥ 20 | – | ≥ 20 | 1.16 | ≥ 20 | ≥ 20 | ≥ 20 | – | 2.57 | ≥ 20 | ≥ 20 | – | ≥ 20 | ≥ 20 | ≥ 20 | ≥ 20 | ≥ 20 | Kd (HLA-B*08:01; [6]): 0.19 µM; Kd (HLA-B*08:02; [6]): ≥ 5 µM; Kd (HLA-B*38:01; [6]): ≥ 20 µM; Kd (HLA-A*26:01; [6]): ≥ 20 µM; Kd (HLA-B*15:01 [2]): ≥ 20 µM
3 | KLMDVVYSI | – | – | – | – | – | – | – | – | – | – | – | – | – | – | – | – | – | – | Kd (HLA-A*32:15; [7]): 0.0556 µM; Kd (HLA-B*27:20): 0.0179 µM; Kd (HLA-B*15:42; [7]): ≥ 5 µM; Kd (HLA-B*45:06; [7]): ≥ 5 µM; Kd (HLA-A*32:07): 0.0021 µM; Kd (HLA-A*02:01; [7]): 0.0009 µM; Kd (HLA-C*03:03): ≥ 20 µM
4 | RPKPDYSAM | ≥ 20 | ≥ 20 | 0.08 | ≥ 20 | ≥ 20 | ≥ 20 | – | ≥ 20 | ≥ 20 | ≥ 20 | ≥ 20 | ≥ 20 | ≥ 20 | ≥ 20 | ≥ 20 | ≥ 20 | ≥ 20 | ≥ 20 | Kd (HLA-B*39:01): 1.96 µM; Kd (HLA-B*15:09): ≥ 20 µM; Kd (HLA-B*15:01 [1]; source organism: Mycobacterium tuberculosis C): ≥ 20 µM; Kd (HLA-A*30:01): 0.123 µM; Kd (HLA-A*26:01; [5]): ≥ 20 µM
5 | YTKKYLLSF | – | – | – | – | – | – | – | – | – | – | – | – | – | – | – | – | – | – | Kd (HLA-A*32:15; [8]): 0.235 µM; Kd (HLA-B*15:42; [8]): ≥ 5 µM; Kd (HLA-B*45:06; [8]): ≥ 5 µM; Kd (HLA-B*83:01; [8]): ≥ 5 µM; Kd (HLA-C*14:02): 2.05 µM; Kd (HLA-C*15:02): 5 µM; Kd (HLA-A*26:01; source organism: Campylobacter jejuni subsp. jejuni 81116): 0.002 µM; Kd (HLA-C*06:02): ≥ 20 µM

— the Immune Epitope Database (IEDB)
